Test results as given in US20050054023A1 (BOARD OF SUPERVISORS OF LOUISIANA STATE UNIVERSITY AND …, published 2005).

Target: extracellular signal-regulated protein kinase 2 (purified, recombinant, activated ERK2)
Test: cell-based or functional assay

extracellular signal-regulated protein kinase 2 (purified, recombinant, activated ERK2), sequence (P28482 2-360): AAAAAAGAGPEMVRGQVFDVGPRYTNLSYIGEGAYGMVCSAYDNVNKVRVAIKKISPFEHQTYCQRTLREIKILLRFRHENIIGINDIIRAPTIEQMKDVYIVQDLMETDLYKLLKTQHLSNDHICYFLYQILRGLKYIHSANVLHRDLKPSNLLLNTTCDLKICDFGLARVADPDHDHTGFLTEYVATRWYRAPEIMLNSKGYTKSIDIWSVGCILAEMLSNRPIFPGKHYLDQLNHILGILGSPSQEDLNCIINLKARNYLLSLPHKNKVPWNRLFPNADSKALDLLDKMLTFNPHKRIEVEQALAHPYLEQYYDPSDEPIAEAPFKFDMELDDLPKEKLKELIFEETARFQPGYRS

Binder	V/K
KQAEAVTSPR [rat TH-Ser31 peptide KQAEAVTSPR]	5
ATGPLSPFGRR [ERKtide]	136
APRTPGGR [MBPtide (Thr97) …]	23
EAIMSPRFK [type 1 human TH-Ser31 peptide EAIMSPRFK]	28
YQAEAIMSPRFIGRRQ [type 1 human TH-Ser31 peptide YQAEAIMSPRFIGRRQ]	80
